Tested on: MS2 coat protein
Test: apparent KD of MS2 coat protein; designed switch direction (-1 OFF switch, 1 ON switch): -1; higher = weaker reporter binding
How it was run: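 Apparent KD, taken as the median over clusters for each design, was obtained by curve-fitting normalised cluster fluorescence. Designed RNA switches had been transcribed on Illumina chips by stalled E. coli RNA polymerase and titrated with SNAP-549-labelled MS2 coat protein, doubling from 0.7 or 1.5 nM to 3 µM.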

[1] = Eterna round: R95, input ligand: microRNA oligo, concentration not stated
[2] = Eterna round: R95, input ligand: FMN 200 uM
[3] = Eterna round: R95, input ligand: none
[4] = input ligand: microRNA oligo, concentration not stated

## CCAGCGUAUGUUAGGAUAUGCUGGUCGAAAGAUCAGCAGAAGGAACAUGAGGAUCACCCAUGUGGAAAAGUUGG [Mod of JL 25 - Jieux - Brourd's mod of Exclusion 4] (Eterna round: R97, puzzle: Brourd's mod of Exclusion 4)
Input ligand: FMN 200 uM
  apparent KD of MS2 coat protein: 184 nM
Input ligand: none
  apparent KD of MS2 coat protein: 30.4 nM

## GAAAAGGUAGAGGAUAUUUCAGAUCAAAGCUGCAAAGAAGGCUGCACAUGAGGAUCACCCAUGUGGUCUUCAAA [Mod of Quesina 9 - Jieux - Exclusion 6] (Eterna round: R97, puzzle: Exclusion 6)
Input ligand: FMN 200 uM
  apparent KD of MS2 coat protein: 121 nM
Input ligand: none
  apparent KD of MS2 coat protein: 19.7 nM

## CGAGUGUAAGGAUAUUCGGCGCCAGGGAACGACCUGGCGUAGAAGAAGGUACAUGAGGAUCACCCAUGUGGUUA [Issobi] (puzzle: Exclusion 4)
[1]
  apparent KD of MS2 coat protein: 142 nM

## UCGGCGCGAGGAUAUGCGGCUGCUGCUUCGGGCCGUGGCGUACAUGAGGAUCACCCAUGUAGAAGGCGCGCCGC [Apr-15 SS2-40] (puzzle: Exclusion 2)
[1]
  apparent KD of MS2 coat protein: 11.3 nM

## GUCAUCACACAUGGGAUCAACAUGAGGAUCACCCAUGUUGUCAAGUUUUUUGCUCGUCUUAUAAUACGUUUGAUGAC [Mod-Jxc] (Eterna round: R97, puzzle: Sensor, turn-off variant 1)
Input ligand: FMN 200 uM
  apparent KD of MS2 coat protein: 26.7 nM

## UAUAACCAAGGAUAUACAUGAGGAUCACCCAUGUAAUAUAAUAUAAUAUAAAUAAAAUGUAGAAGGUGGGAUAU (Eterna round: R97, puzzle: Exclusion 3)
Input ligand: FMN 200 uM
  apparent KD of MS2 coat protein: 26.6 nM
Input ligand: none
  apparent KD of MS2 coat protein: 31.4 nM

## CAUACAGUAGUCAGGAUAUUGGAAGAGACACGGAACGAGAAGGGACAUGAGGAUCACCCAUGUAUACUGUAAAG [EX-4 Malc #4] (puzzle: Brourd's mod of Exclusion 4)
[1]
  apparent KD of MS2 coat protein: 23.8 nM

## UUGAAGUAAGGAUAUACAUGAGGAUCACCCAUGUGGAGGAAGGUGAUGGGAGUAGGUAGUAGAAGGUACGAGGA [JR_Exclu3_Sub063] (puzzle: Exclusion 3)
[2]
  apparent KD of MS2 coat protein: 124 nM
[1]
  apparent KD of MS2 coat protein: 100 nM
[3]
  apparent KD of MS2 coat protein: 220 nM

## UAUGUGUCAGGAUAUUAGUAGUAAAUAAAUAAAAUUAUUACUGAGAAGGGACAUGAGGAUCACCCAUGUGCCUU [Salish 062 v31] (Eterna round: R97, puzzle: Exclusion 4)
Input ligand: FMN 200 uM
  apparent KD of MS2 coat protein: 23.2 nM
Input ligand: none
  apparent KD of MS2 coat protein: 12.3 nM

## UUUUUGUGAGGAUAUCAGUAGUAAAAAAAUAAAAUUACUACUGAGAAGGCACAUGAGGAUCACCCAUGUUUUUU [salish99_ex4_r3_013] (puzzle: Exclusion 4)
[1]
  apparent KD of MS2 coat protein: 43.3 nM

## CCGCUGUGAGGAUAUUAGUAGUAGUCAGAAAAGACUAUUACUGAGAAGGCACAUGAGGAUCACCCAUGUGGCGG [Mat - Exclusion 4 - Eli Mod - D47] (Eterna round: R97, puzzle: Exclusion 4)
Input ligand: FMN 200 uM
  apparent KD of MS2 coat protein: 31.4 nM
Input ligand: none
  apparent KD of MS2 coat protein: 21.5 nM

## GCGGACAAGAUGGUGACAUCAGAGACAUGAGGAUCACCCAUGUAGGAUAUCGAUUCGAAACGAAUCGAGAAGGGCAUAGUCCGC [JL denovo 3] (Eterna round: R96, puzzle: Exclusion NG 3)
Input ligand: FMN 200 uM
  apparent KD of MS2 coat protein: 460 nM
[4]
  apparent KD of MS2 coat protein: 190 nM
Input ligand: none
  apparent KD of MS2 coat protein: 224 nM

## UAUUAUAAUGUAGGAUAUCUGCACGUGUAGUGCAGAGAAGGACAUGAGGAUCACCCAUGUAUAGUAGCUUCGGCUACAUUAUUU [ENG1-B3] (Eterna round: R96, puzzle: Exclusion NG 1)
Input ligand: FMN 200 uM
  apparent KD of MS2 coat protein: 90.5 nM
[4]
  apparent KD of MS2 coat protein: 61.8 nM
Input ligand: none
  apparent KD of MS2 coat protein: 71.2 nM

## CAGCGUUCAGGAUAUACAUGAGGAUCACCCAUGUGUUCCAGCUAGGAAACUAGCAAAUGUAGAAGGGAACGCUG [Mat - Exclusion 3 - JL Mod - D1] (Eterna round: R97, puzzle: Exclusion 3)
Input ligand: FMN 200 uM
  apparent KD of MS2 coat protein: 463 nM
Input ligand: none
  apparent KD of MS2 coat protein: 125 nM

## UGAUUGUUUACCAGGUUAUACAUGAGGAUCACCCAUGUAGAUCCUACGUGCGCGUUGUACCGCUCGUCUUAUUGCCA [Sensor-V1 #79] (Eterna round: R97, puzzle: Sensor, turn-off variant 1)
Input ligand: FMN 200 uM
  apparent KD of MS2 coat protein: 19.5 nM
Input ligand: none
  apparent KD of MS2 coat protein: 21.3 nM

## ACAUGAGGAUCACCCAUGUAAACAUGAUGGCUGAUGUAGAGCUAGGAUAUGAGUGACUUUCUAUCUCAGAAGGAGCUUGACUGG [Deportation 44 - Jieux - Exclusion NG 3] (Eterna round: R96, puzzle: Exclusion NG 3)
Input ligand: FMN 200 uM
  apparent KD of MS2 coat protein: 30.1 nM
[4]
  apparent KD of MS2 coat protein: 26.9 nM
Input ligand: none
  apparent KD of MS2 coat protein: 45.2 nM

## AAUGUGUGAGGAUAUUAAUUGCAAGCGAAUAGGCUUGUGAUUGAGAAGGCACAUGAGGAUCACCCAUGUUCCAA [JR_Ex4_Sub083] (Eterna round: R97, puzzle: Exclusion 4)
Input ligand: FMN 200 uM
  apparent KD of MS2 coat protein: 557 nM
Input ligand: none
  apparent KD of MS2 coat protein: 38.6 nM

## GAGUGACAUGAGGAUCACCCAUGUGAGGAUAUCGGACGGACCUAGUUAACAUCCGCCGCGAGAAGGCACAUCGG [Exclusion 1 V23] (puzzle: Exclusion 1)
[1]
  apparent KD of MS2 coat protein: 136 nM

## ACUAAAUAAACAAGCAAUAAUCCAUCGUCUUAUACUAAAACAUGAGGAUCACCCAUGUAACAGGUGGUGUUAAAUAA [JR_Sensorv2_tov2_Sub1202] (Eterna round: R96, puzzle: Sensor v2, turn-off variant 2)
Input ligand: FMN 200 uM
  apparent KD of MS2 coat protein: 15.4 nM
[4]
  apparent KD of MS2 coat protein: 40.6 nM
Input ligand: none
  apparent KD of MS2 coat protein: 19.1 nM

## AGUCGGCGAGGAUAUACAUGAGGAUCACCCAUGUGAUAUAGUGCACGCGUACGUGUACGUAGAAGGCGCUGACA [Mat - Exclusion 3 - Mod of JL D93] (puzzle: Exclusion 3)
[1]
  apparent KD of MS2 coat protein: 11.5 nM

## UUAUUGUGAGGAUAUCCAAUAUAUGACAUGAGGAUCACCCAUGUUUCCACUCGUACCUCCGGAGAAGGCACUUAUA [Ex5 #47] (Eterna round: R97, puzzle: Exclusion 5)
Input ligand: FMN 200 uM
  apparent KD of MS2 coat protein: 28.6 nM
Input ligand: none
  apparent KD of MS2 coat protein: 32.3 nM

## CAUACAGUAGUCAGGAUAUUGGAAGAGACACGGAACGAGAAGGGACAUGAGGAUCACCCAUGUAUACUGUAAAG [EX-4 Malc #4] (Eterna round: R96, puzzle: Brourd's mod of Exclusion 4)
Input ligand: FMN 200 uM
  apparent KD of MS2 coat protein: 22.3 nM
[4]
  apparent KD of MS2 coat protein: 25.5 nM
Input ligand: none
  apparent KD of MS2 coat protein: 29.9 nM

## ACAUGGGAGCGAGGAUAUAGCCCAUGUGAAGAACUAGAAGGCGCAGACAUGAGGAUCACCCAUGUGUUCAUGAGGAGGUGGACA (Eterna round: R96, puzzle: Exclusion NG 1)
Input ligand: FMN 200 uM
  apparent KD of MS2 coat protein: 72.7 nM
[4]
  apparent KD of MS2 coat protein: 42.4 nM
Input ligand: none
  apparent KD of MS2 coat protein: 69.4 nM

## AGCCUACAUGAGGAUCACCCAUGUCAGGAUAUCUCGCAACGUGUCAAGUUCACGUCGCAGAGAAGGGACUCGGG [Tienberi] (puzzle: Exclusion 1)
[1]
  apparent KD of MS2 coat protein: 51.9 nM

## UGGCUGCUCAGGGAGUGUGACAUGAGGAUCACCCAUGUGGUAGUAAGGAACAAGCUUUUUACACGUACUUAUAAAGC [JR_SV3TOV1_Sub011] (puzzle: Sensor v3, turn-off variant 1)
[2]
  apparent KD of MS2 coat protein: 157 nM
[1]
  apparent KD of MS2 coat protein: 135 nM
[3]
  apparent KD of MS2 coat protein: 296 nM

## CUUGUGCAACAGGAUAUGUGCACGGCAGUAGCAACAGAAGGGUUGACAUGAGGAUCACCCAUGUUUACAAAGCG [Eternabot (Original) Solution 35] (Eterna round: R97, puzzle: Exclusion 6)
Input ligand: FMN 200 uM
  apparent KD of MS2 coat protein: 132 nM
Input ligand: none
  apparent KD of MS2 coat protein: 137 nM

## CCGGCGUGGUGCGGUUGUCGUUCGACAUGAGGAUCACCCAUGUAGGAUAUGCGCGUGGUCGCGCCGCAGAAGGGCAUCGUUUGG [Random, 15% A] (Eterna round: R96, puzzle: Exclusion NG 3)
Input ligand: FMN 200 uM
  apparent KD of MS2 coat protein: 10.7 nM
[4]
  apparent KD of MS2 coat protein: 10.7 nM
Input ligand: none
  apparent KD of MS2 coat protein: 14.5 nM

## GUCGUGCAGCUUUGCUGUACGAGUACAUGAGGAUCACCCAUGUAGGAUAUGGUACGCUUUGCGUGCCAGAAGGACGUGCGUUGG [salish99_ExNG3_r04_004] (Eterna round: R96, puzzle: Exclusion NG 3)
[4]
  apparent KD of MS2 coat protein: 38.3 nM

## CAGUACAGAGGAUAUACAUGAGGAUCACCCAUGUGUUCCAGCUAGGAAACUAGCGAAUGUAGAAGGCUGUACUG [jl-ex3-4.23 salish99 mod] (Eterna round: R97, puzzle: Exclusion 3)
Input ligand: FMN 200 uM
  apparent KD of MS2 coat protein: 166 nM
Input ligand: none
  apparent KD of MS2 coat protein: 273 nM

## AGAUUGCAUGAGGAUAUCGUAUUAGAUAUAAUGCGAGAAGGCAUGACAUGAGGAUCACCCAUGUAGUGUUGGGA [JR_Ex6_Sub012] (Eterna round: R97, puzzle: Exclusion 6)
Input ligand: FMN 200 uM
  apparent KD of MS2 coat protein: 75.1 nM
Input ligand: none
  apparent KD of MS2 coat protein: 52.6 nM

## AGUGCGUAUGUGAGGAUAUGCUGGUCCUUGGAUCGGCAGAAGGCACAUGAGGAUCACCCAUGUGGUGUCGUACG [salish99_Bmod_ex4_077] (puzzle: Brourd's mod of Exclusion 4)
[2]
  apparent KD of MS2 coat protein: 203 nM
[1]
  apparent KD of MS2 coat protein: 58.6 nM
[3]
  apparent KD of MS2 coat protein: 89.2 nM

## AACGAUACGCUCAUAAGAACAUGAGGAUCACCCAUGUGUGGUGAGGAUAUCCACCCAGAGGGAAAGGAGAAGGUACCAGUGGAC [Orsoenbere] (Eterna round: R96, puzzle: Exclusion NG 3)
Input ligand: FMN 200 uM
  apparent KD of MS2 coat protein: 222 nM
[4]
  apparent KD of MS2 coat protein: 143 nM
Input ligand: none
  apparent KD of MS2 coat protein: 303 nM

## UCGGUGACAGGAUAUACAUGAGGAUCACCCAUGUUAAGAAGAGAAAGGGCAGGAAGAGGUAGAAGGGUCGCUGU [JL JR_Exclu3_Sub033 mod] (puzzle: Exclusion 3)
[1]
  apparent KD of MS2 coat protein: 37.8 nM

## GGUGGACAUGAGGAUCACCCAUGUGAGGAUAUCGGCUGGUGCGUGGUGGCUGGCAUCUCGAGAAGGCACAUAGU [Exclusion 1 V67] (puzzle: Exclusion 1)
[1]
  apparent KD of MS2 coat protein: 70.5 nM

## ACAUGAGGAUCACCCAUGUCCGGCUGGUCCGUCUCGGCUGUCGAGGAUAUAGCUCGGUGUCCGCGCUAGAAGGCGGGAGCUGGC [Aenatbe mod 67] (Eterna round: R96, puzzle: Exclusion NG 3)
Input ligand: FMN 200 uM
  apparent KD of MS2 coat protein: 91.5 nM
[4]
  apparent KD of MS2 coat protein: 49.8 nM
Input ligand: none
  apparent KD of MS2 coat protein: 85.1 nM

Source: the supplement of paper PMC9170038
